According to PMC3186816 (Molecular & Cellular Proteomics : MCP, 2011):
Values joined by “and” are separate entries in the source; they are usually repeats but may differ in a detail not shown here. Equal entries are not always repeated. Where two headings read alike, the source gives them in different places.

Tests used:
[1] = biological target: phage p2 ORF15 (as in the sample SBP1) (Lactococcus phage p2) (UniProt D3WAD3); assay: native MS
[2] = biological target: phage p2 ORF16 (Lactococcus phage p2); assay: native MS
[3] = biological target: phage p2 ORF16 (Lactococcus phage p2); assay: native MS; remark: listed apart in the source
[4] = biological target: phage TP901-1 ORF49 (BppL, the RBP), as in the sample TP1 (Lactococcus phage TP901-1); assay: native MS
[5] = biological target: phage TP901-1 ORF48 (BppU), as in the Tripod sample (Lactococcus phage TP901-1); assay: native MS
[6] = biological target: phage TP901-1 ORF46 (Dit) (Lactococcus phage TP901-1); assay: native MS
[7] = biological target: phage TP901-1 ORF46 (Dit) (Lactococcus phage TP901-1); assay: denaturing ESI-MS
[8] = biological target: phage TP901-1 ORF46 (Dit) (Lactococcus phage TP901-1); assay: native MS; remark: listed apart in the source
[9] = biological target: phage TP901-1 ORF46 (Dit) (Lactococcus phage TP901-1); assay: SEC-MALS
[10] = biological target: phage TP901-1 ORF49 (BppL), as in the Tripod sample (Lactococcus phage TP901-1); assay: native MS
[11] = biological target: phage TP901-1 ORF48 (BppU), as in the samples TP1 and Dit-BppU (Lactococcus phage TP901-1); assay: native MS
[12] = biological target: phage TP901-1 ORF48 (BppU), as in the samples TP1 and Dit-BppU (Lactococcus phage TP901-1); assay: native MS; remark: listed apart in the source
[13] = biological target: Tal-N (TP901-1 ORF47 N-terminal region, residues 1-386) (Lactococcus phage TP901-1); assay: native MS
[14] = biological target: Tal-N (TP901-1 ORF47 N-terminal region, residues 1-386) (Lactococcus phage TP901-1); assay: denaturing ESI-MS
[15] = biological target: phage p2 baseplate subcomplex SBP1 [6xORF15 + 3xORF16] (Lactococcus phage p2) (UniProt D3WAD3); assay: native MS
[16] = biological target: T1, phage p2 baseplate [6xORF15 + 3xORF16 + 18xORF18] (Lactococcus phage p2); assay: native MS
T1 chain 1: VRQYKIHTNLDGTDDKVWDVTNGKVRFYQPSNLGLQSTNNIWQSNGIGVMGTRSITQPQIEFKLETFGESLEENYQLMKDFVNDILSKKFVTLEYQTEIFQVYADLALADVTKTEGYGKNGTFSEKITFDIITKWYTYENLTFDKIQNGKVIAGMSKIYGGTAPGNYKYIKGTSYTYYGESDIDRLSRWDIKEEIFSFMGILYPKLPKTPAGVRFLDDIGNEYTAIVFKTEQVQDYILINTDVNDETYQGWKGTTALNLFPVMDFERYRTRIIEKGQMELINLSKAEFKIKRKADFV
T1 chain 2: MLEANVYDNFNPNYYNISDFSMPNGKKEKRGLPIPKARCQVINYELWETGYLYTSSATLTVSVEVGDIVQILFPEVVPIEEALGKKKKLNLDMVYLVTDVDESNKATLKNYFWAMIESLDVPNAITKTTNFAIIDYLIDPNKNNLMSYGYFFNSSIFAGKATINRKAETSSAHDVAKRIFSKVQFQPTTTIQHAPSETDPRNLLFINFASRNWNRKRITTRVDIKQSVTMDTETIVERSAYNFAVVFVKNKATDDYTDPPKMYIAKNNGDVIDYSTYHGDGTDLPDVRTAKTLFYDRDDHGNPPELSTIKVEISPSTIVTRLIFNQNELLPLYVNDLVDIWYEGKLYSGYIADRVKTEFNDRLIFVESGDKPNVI
T1 chain 3: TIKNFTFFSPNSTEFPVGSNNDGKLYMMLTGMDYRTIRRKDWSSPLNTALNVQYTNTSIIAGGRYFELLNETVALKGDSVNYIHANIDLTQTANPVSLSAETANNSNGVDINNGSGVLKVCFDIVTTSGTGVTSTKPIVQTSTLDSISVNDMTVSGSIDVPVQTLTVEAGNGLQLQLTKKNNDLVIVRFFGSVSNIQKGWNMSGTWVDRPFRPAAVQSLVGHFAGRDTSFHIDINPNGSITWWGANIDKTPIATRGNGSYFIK

native MS [17] = biological target: the molecule itself; assay: native MS
denaturing ESI-MS = biological target: the molecule itself; assay: denaturing ESI-MS
native MS [18] = biological target: the molecule itself; assay: native MS; remark: listed apart in the source
native MS [19] = biological target: the molecule itself; assay: native MS; remark: listed apart in the source

phage p2 ORF15 (as in the sample SBP1) (from UniProt D3WAD3 2-298) (natural protein)
stoichiometry N [1]: 6

phage p2 ORF16 (natural protein)
stoichiometry N [2]: 2 and 3 | stoichiometry N [3]: 3

phage TP901-1 ORF49 (BppL, the RBP), as in the sample TP1 (natural protein)
stoichiometry N [4]: 3 and 6

phage TP901-1 ORF48 (BppU), as in the Tripod sample (natural protein)
stoichiometry N [5]: 3

phage TP901-1 ORF46 (Dit) (natural protein)
stoichiometry N [6]: 6 | stoichiometry N [7]: 2 and 3 and 6 | stoichiometry N [8]: 6 and 12 | stoichiometry N [9]: 12

phage TP901-1 ORF49 (BppL), as in the Tripod sample (natural protein)
stoichiometry N [10]: 3

phage TP901-1 ORF48 (BppU), as in the samples TP1 and Dit-BppU (natural protein)
stoichiometry N [11]: 3 | stoichiometry N [12]: 3

Tal-N (TP901-1 ORF47 N-terminal region, residues 1-386) (domain or fragment)
stoichiometry N [13]: 2 and 3 | stoichiometry N [14]: 2 and 3

phage p2 baseplate subcomplex SBP1 [6xORF15 + 3xORF16] (from UniProt D3WAD3 2-298)
stoichiometry N [15]: 2

B1: VHH5 neutralizing llama antibody fragment (VHH)
VHH: QVQLQESGGGLVQAGGSLRLSCTASRRTGSNWCMGWFRQLAGKEPELVVALNFDYDMTYYADSVKGRFTVSRDSGKNTVYLQMNSLKPEDTAIYYCAARSGGFSSNRELYDGWGQGTQVTVSS
stoichiometry N [16]: 18

B2: phage p2 ORF15 (as in the samples BP1, BP2 and SBP2) (natural protein, Lactococcus phage p2)
chain: T1 chain 1
stoichiometry N (native MS [17]): 6

B3: phage p2 ORF18 (receptor-binding protein) (natural protein, Lactococcus phage p2)
chain: T1 chain 3
stoichiometry N (denaturing ESI-MS): 2 | stoichiometry N (native MS [18]): 3 | stoichiometry N (native MS [19]): 3
